{"source": "patent US9061070B2", "about": "“Treating stroke and other diseases without inhibiting N-type calcium channels” (NoNO, Inc., priority 2007, dated 2015)", "target": "N-type calcium channels (Mus musculus, UniProt O55017)", "sequence (O55017 whole entry)": "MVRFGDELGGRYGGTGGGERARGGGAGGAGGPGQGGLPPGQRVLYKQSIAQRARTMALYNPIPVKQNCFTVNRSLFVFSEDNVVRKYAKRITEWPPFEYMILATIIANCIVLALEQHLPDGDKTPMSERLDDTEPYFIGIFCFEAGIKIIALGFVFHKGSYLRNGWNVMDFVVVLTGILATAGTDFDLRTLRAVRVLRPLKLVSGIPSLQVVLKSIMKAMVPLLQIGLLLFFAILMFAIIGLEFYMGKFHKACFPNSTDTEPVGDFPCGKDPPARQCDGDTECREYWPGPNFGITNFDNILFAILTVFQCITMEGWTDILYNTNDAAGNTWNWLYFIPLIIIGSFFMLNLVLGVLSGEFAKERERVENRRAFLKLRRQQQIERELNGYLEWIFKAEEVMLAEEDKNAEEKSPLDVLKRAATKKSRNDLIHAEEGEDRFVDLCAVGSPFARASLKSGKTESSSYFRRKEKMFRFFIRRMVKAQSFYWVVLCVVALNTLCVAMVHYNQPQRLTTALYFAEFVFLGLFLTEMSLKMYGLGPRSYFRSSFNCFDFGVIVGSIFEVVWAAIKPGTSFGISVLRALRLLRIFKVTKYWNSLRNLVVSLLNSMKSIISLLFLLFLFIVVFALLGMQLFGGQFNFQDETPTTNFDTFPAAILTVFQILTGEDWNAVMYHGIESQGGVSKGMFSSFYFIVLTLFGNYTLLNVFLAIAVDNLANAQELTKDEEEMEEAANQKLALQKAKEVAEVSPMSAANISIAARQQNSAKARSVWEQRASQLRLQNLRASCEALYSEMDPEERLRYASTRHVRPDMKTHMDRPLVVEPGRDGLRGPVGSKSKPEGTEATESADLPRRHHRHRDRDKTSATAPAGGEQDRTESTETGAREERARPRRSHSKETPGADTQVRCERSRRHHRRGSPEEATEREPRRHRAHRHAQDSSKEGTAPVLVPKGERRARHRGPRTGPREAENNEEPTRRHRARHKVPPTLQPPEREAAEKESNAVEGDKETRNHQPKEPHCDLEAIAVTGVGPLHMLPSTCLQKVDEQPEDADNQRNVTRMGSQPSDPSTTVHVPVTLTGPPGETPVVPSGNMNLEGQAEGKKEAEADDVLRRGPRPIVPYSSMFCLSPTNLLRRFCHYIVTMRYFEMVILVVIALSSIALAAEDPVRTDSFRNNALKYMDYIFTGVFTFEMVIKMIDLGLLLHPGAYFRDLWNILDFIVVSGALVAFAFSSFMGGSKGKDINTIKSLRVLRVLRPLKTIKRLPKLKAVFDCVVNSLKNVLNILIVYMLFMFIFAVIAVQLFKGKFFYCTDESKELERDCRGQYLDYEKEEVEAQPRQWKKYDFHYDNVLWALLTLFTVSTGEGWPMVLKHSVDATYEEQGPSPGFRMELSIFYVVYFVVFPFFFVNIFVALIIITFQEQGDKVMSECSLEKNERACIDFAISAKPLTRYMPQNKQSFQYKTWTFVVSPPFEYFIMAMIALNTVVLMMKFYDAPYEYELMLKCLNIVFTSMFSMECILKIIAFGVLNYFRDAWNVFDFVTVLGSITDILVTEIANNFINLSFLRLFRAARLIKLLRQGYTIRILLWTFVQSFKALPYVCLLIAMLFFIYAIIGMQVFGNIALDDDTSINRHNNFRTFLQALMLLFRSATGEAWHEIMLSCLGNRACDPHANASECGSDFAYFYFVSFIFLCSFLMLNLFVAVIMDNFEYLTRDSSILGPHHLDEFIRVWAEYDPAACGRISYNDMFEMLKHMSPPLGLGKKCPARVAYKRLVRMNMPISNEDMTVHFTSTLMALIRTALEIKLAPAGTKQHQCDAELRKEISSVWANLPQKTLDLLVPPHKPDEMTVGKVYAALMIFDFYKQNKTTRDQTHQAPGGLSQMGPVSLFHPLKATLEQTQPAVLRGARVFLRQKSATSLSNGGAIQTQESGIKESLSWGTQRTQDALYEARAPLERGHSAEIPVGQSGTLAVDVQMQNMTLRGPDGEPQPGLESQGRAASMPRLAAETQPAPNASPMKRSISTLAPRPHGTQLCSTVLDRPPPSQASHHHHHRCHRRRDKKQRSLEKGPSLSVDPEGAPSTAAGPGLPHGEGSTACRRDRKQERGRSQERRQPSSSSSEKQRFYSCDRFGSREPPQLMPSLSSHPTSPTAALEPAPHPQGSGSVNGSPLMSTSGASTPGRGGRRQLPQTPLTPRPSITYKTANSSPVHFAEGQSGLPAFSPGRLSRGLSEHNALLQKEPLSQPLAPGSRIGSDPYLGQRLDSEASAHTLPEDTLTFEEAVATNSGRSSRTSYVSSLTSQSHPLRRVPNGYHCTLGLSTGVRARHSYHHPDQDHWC", "sequence (O08532 25-956 partner limits assumed)": "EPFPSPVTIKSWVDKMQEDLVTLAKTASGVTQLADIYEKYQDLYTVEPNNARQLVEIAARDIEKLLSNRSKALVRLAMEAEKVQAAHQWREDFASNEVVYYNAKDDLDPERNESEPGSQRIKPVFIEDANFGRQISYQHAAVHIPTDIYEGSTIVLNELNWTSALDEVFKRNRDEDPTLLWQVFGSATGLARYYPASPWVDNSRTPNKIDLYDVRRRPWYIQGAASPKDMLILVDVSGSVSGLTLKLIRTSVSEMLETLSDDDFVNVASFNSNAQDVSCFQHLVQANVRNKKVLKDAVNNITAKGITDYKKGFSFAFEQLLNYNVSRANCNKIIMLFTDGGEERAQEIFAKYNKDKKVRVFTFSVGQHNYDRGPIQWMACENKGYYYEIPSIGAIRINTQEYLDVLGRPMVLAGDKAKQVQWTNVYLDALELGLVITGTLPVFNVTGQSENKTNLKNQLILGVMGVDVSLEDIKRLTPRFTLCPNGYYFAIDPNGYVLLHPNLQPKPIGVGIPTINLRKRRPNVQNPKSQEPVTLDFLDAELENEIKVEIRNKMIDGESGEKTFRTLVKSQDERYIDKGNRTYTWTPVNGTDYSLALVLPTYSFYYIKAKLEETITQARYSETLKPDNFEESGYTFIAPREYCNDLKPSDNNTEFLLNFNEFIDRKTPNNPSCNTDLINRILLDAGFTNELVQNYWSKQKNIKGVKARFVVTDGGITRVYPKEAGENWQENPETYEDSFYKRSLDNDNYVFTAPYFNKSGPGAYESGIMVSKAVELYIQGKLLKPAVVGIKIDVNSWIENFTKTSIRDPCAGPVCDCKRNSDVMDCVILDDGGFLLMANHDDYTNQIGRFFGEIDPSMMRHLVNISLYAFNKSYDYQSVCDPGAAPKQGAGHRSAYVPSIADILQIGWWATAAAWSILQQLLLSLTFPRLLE", "sequence (O08532 957-1103 partner limits assumed)": "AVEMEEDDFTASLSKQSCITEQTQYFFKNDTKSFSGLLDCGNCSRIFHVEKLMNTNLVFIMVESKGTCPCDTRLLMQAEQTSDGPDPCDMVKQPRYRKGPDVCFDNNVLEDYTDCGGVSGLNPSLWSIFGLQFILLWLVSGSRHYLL", "sequence (P54285 whole entry partner)": "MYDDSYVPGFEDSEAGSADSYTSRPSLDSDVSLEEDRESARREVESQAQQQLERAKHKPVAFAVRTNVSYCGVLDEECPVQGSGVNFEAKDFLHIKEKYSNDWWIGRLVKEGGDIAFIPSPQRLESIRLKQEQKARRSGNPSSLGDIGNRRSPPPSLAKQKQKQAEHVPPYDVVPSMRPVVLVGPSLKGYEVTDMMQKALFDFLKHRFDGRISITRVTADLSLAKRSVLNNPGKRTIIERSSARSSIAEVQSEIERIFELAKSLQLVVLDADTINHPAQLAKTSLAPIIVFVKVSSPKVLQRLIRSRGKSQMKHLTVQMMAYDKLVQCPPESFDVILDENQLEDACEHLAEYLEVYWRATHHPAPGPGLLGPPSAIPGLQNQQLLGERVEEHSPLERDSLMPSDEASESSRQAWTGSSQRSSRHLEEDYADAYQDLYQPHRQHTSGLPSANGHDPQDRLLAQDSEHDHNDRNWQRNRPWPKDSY", "test": "Whole-cell patch clamp recordings of calcium currents in dorsal root ganglion neurons", "type": "cell-based, Swiss mice", "settings": "100 μM; FIG. 5A"}
{"sequence": "YGRKKRRQRRRKLSSIESDV [Tat-NR2B9c, reference compound]", "values": [{"measurement": "additional inhibition once N-channels are blocked by omega conotoxin (1 μM)", "value": "no additional inhibition"}]}
